Laboratory results from patent publication US20020143164A1 (published 2002).

Target: Endogenous Ras of HEK-293T cells (human (endogenous in HEK-293T cells))
Test: cell-based or functional assay

- enhancement of Ras activation in cells after 8-Br-cAMP (GST-Raf1-RBD precipitation): 3.9 fold
- enhancement of Ras activation in cells after 8-Br-cAMP plus H-89 (GST-Raf1-RBD precipitation): 3.5 fold
B1: Flag-tagged full-length GRF4 (enzyme, not shown: small tags and cut ends)
chain: MKPLAIPANHGVMGQQEKHSLPADFTKLHLTDSLHPQVTHVSSSHSGCSITSDSGSSSLSDIYQATESEAGDMDLSGLPETAVDSEDDDDEEDIERASDPLMSRDIVRDCLEKDPIDRTDDDIEQLLEFMHQLPAFANMTMSVRRELCAVMVFAVVERAGTIVLNDGEELDSWSVILNGSVEVTYPDGKAEILCMGNSFGVSPTMDKEYMKGVMRTKVDDCQFVCIAQQDYCRILNQVEKNMQKVEEEGEIVMVKEHRELDRTGTRKGHIVIKGTSERLTMHLVEEHSVVDPTFIEDFLLTYRTFLSSPMEVGKKLLEWFNDPSLRDKVTRVVLLWVNNHFNDFEGDPAMTRFLEEFENNLEREKMGGHLRLLNIACAAKAKRRLMTLTKPSREAPLPFILLGGSEKGFGIFVDSVDSGSKATEAGLKRGDQILEVNGQNFENIQLSKAMEILRNNTHLSITVKTNLFVFKELLTRLSEEKRNGAPHLPKIGDIKKASRYSIPDLAVDVEQVIGLEKVNKKSKANTVGGRNKLKKILDKTRISILPQKPYNDIGIGQSQDDSIVGLRQTKHIPTALPVSGTLSSSNPDLLQSHHRILDFSATPDLPDQVLRVFKADQQSRYIMISKDTTAKEVVIQAIREFAVTATPDQYSLCEVSVTPEGVIKQRRLPDQLSKLADRIQLSGRYYLKNNMETETLCSDEDAQELLRESQISLLQLSTVEVATQLSMRNFELFRNIEPTEYIDDLFKLRSKTSCANLKRFEEVINQETFWVASEILRETNQLKRMKIIKHFIKIALHCRECKNFNSMFAIISGLNLAPVARLRTTWEKLPNKYEKLFQDLQDLFDPSRNMAKYRNVLNSQNLQPPIIPLFPVIKKDLTFLHEGNDSKVDGLVNFEKLRMIAKEIRHVGRMASVNMDPALMFRTRKKKWRSLGSLSQGSTNATVLDVAQTGGHKKRVRRSSFLNAKKLYEDAQMARKVKQYLSNLELEMDEESLQTLSLQCEPATNTLPKNPGDKKPVKSETSPVAPRAGSQQKAQSLPQPQQQPPPAHKINQGLQVPAVSLYPSRKKVPVKDLPPFGINSPQALKKILSLSEEGSLERHKKQAEDTISNASSQLSSPPTSPQSSPRKGYTLAPSGTVDNFSDSGHSEISSRSSIVSNSSFDSVPVSLHDERRQRHSVSIVETNLGMGRMERRTMIEPDQYSLGSYAPMSEGRGLYATATVISSPSTEELSQDQGDRASLDAADSGRGSWTSCSSGSHDNIQTIQHQRSWETLPFGHTHFDYSGDPAGLWASSSHMDQIMFSDHSTKYNRQNQSRESLEQAQSRASWASSTGYWGEDSEGDTGTIKRRGGKDVSIEAESSSLTSVTTEETKPVPMPAHIAVASSTTKGLIARKEGRYREPPPTPPGYIGIPITDFPEGHSHPARKPPDYNVALQRSRMVARSSDTAGPSSVQQPHGHPTSSRPVNKPQWHKPNESDPRLAPYQSQGFSTEEDEDEQVSAV
